Source: the supplement of paper PMC7125110
± gives the standard error. Variants at the floor of the assay were thinned out.

B1: glmS ribozyme (parent)
chain: AUAAAAGCGCCAGAACUACAGAAAUGUAGUUGACGAGGAGGAGGUUUAUCGAAUUUUCGGCGGAUGCCUCCAAA

Experiments:
Conditions in all cases: with glucosamine-6-phosphate
[1] = variants of: B1; experiment: self-cleavage kobs at 40 uM GlcN6P; higher = faster cleavage; RNA array
Procedure, shortened: (§1)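 Using a hybridised Cy3 probe at 37 °C, barcoded ribozyme variants transcribed in situ by E. coli RNA polymerase on sequenced MiSeq chips were monitored across tiles imaged over ~14 h. The flow contained glucosamine-6-phosphate from 40 μM to 10 mM in HEPES/KCl/Mg(OAc)2 buffer. Signals were normalised to baseline and to non-cleaving reference variants before per-tile medians were fit to one- or two-exponential decays to yield kobs. Weighted Michaelis–Menten fits across concentrations gave kcat and KM.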

[2] = variants of: B1; experiment: self-cleavage kobs at 10000 uM GlcN6P; higher = faster cleavage; RNA array
Procedure, shortened: as §1

[3] = variants of: B1; experiment: self-cleavage kobs at 160 uM GlcN6P; higher = faster cleavage; RNA array
Procedure, shortened: as §1

[4] = variants of: B1; experiment: self-cleavage kobs at 640 uM GlcN6P; higher = faster cleavage; RNA array
Procedure, shortened: as §1

[5] = variants of: B1; experiment: self-cleavage kobs at 2500 uM GlcN6P; higher = faster cleavage; RNA array
Procedure, shortened: as §1

Variant | self-cleavage kobs at 40 uM GlcN6P [1] [s⁻¹] | self-cleavage kobs at 10000 uM GlcN6P [2] [s⁻¹] | self-cleavage kobs at 160 uM GlcN6P [3] [s⁻¹] | self-cleavage kobs at 640 uM GlcN6P [4] [s⁻¹] | self-cleavage kobs at 2500 uM GlcN6P [5] [s⁻¹]
G38C G40C A64U | < 1e-05 | < 1e-05 |  |  | 
G37U A39U C70G | < 1e-05 |  |  |  | 
A39U G44A C71A | < 1e-05 |  | < 1e-05 |  | 
G40A A48U C61G | < 1e-05 | < 1e-05 |  |  | 
G37C A42C C71G | < 1e-05 | < 1e-05 | < 1e-05 | < 1e-05 | < 1e-05
G40U A53U C58A G62U | < 1e-05 |  |  |  | 
G40C C68A | < 1e-05 | < 1e-05 | < 1e-05 | < 1e-05 | < 1e-05
G41C G51A A52U C67A | < 1e-05 | < 1e-05 |  |  | 
A39U G66A | 0.000403 ± 0.00015 | 0.0134 ± 0.0056 | 0.000797 ± 0.00024 | 0.00167 ± 0.00076 | 0.00655 ± 0.0022
G41A U69C | < 1e-05 |  | < 1e-05 |  | 
G38C A39C G43U U57G C71U | < 1e-05 | < 1e-05 |  | < 1e-05 | < 1e-05
G40C C61G | < 1e-05 | < 1e-05 | < 1e-05 | < 1e-05 | < 1e-05
G38U U47G C70G | 0.000113 ± 3.3e-05 | 9.01e-05 ± 2.3e-05 |  |  | 
A39U G51U | < 1e-05 | < 1e-05 |  | < 1e-05 | 
G37A U57G | < 1e-05 |  |  |  | 
G40U G60C | < 1e-05 | < 1e-05 | < 1e-05 |  | < 1e-05
G38A C67U C71A | < 1e-05 | < 1e-05 |  |  | 
A39C G63U | < 1e-05 | < 1e-05 |  | < 1e-05 | 
G37U G40A | < 1e-05 | < 1e-05 | < 1e-05 | < 1e-05 | < 1e-05
G38A C58A G66A | < 1e-05 | < 1e-05 |  |  | 
G38C C67U | < 1e-05 | < 1e-05 |  |  | < 1e-05
G38U A52G U69G | 0.000147 ± 5.7e-05 | 7.13e-05 ± 1.9e-05 |  |  | 
A39G U47G | 0.000644 ± 0.0001 | 0.0237 ± 0.0069 |  | 0.00207 ± 0.00049 | 0.0155 ± 0.0035

Variant | self-cleavage kobs at 40 uM GlcN6P [1] [s⁻¹] | self-cleavage kobs at 10000 uM GlcN6P [2] [s⁻¹] | self-cleavage kobs at 160 uM GlcN6P [3] [s⁻¹] | self-cleavage kobs at 640 uM GlcN6P [4] [s⁻¹] | self-cleavage kobs at 2500 uM GlcN6P [5] [s⁻¹]
A39G U47C | 0.000381 ± 6e-05 | 0.0217 ± 0.0054 |  | 0.00353 ± 0.0012 | 0.00728 ± 0.0026
A36U G41U C70G | < 1e-05 |  |  |  | 
G37C U56G | < 1e-05 |  | < 1e-05 |  | 
G37U U69A | < 1e-05 | < 1e-05 |  |  | 
G37C U54C C61U C67G | < 1e-05 | < 1e-05 |  |  | 
G40A C50G G66C | 0.00112 ± 0.00049 | 0.00127 ± 0.00049 |  |  | 
G37A A53G | 0.000101 ± 2.3e-05 | 0.00615 ± 0.0014 | 0.000212 ± 3.8e-05 | 0.000708 ± 0.00015 | 0.00163 ± 0.00063
G41C G44C | < 1e-05 | < 1e-05 | < 1e-05 | < 1e-05 | < 1e-05
A39U C68U C71G | < 1e-05 | 4.42e-05 ± 2e-05 |  |  | 
G37U A48U | < 1e-05 | < 1e-05 | < 1e-05 |  | < 1e-05
G38U C58U | < 1e-05 | < 1e-05 |  |  | < 1e-05
A36U U69G | 3.66e-05 ± 8.9e-06 | 0.000107 ± 4.1e-05 | 0.000214 ± 3.9e-05 | 0.000283 ± 5.8e-05 | 9.73e-05 ± 2.3e-05
G37U G41A | < 1e-05 | < 1e-05 | < 1e-05 | < 1e-05 | 
G40A C61U | < 1e-05 |  | < 1e-05 | < 1e-05 | 
G40C U54G | 0.000126 ± 1.3e-05 | 0.00251 ± 0.00031 | 0.000127 ± 3e-05 | 0.000766 ± 0.00015 | 0.0025 ± 0.00059
G40C U54C | 8.26e-05 ± 2.6e-05 | 0.00203 ± 0.00044 |  |  | 0.00131 ± 0.00028
G41C U45G | < 1e-05 | 9.46e-05 ± 1.7e-05 |  |  | 
A39C C50G A52C | < 1e-05 |  |  |  | 
G41C G63A A64G | < 1e-05 | < 1e-05 |  |  | 
A36U U45A C71G | < 1e-05 |  |  |  | 
G38U A48G G51U | < 1e-05 | < 1e-05 |  |  | 
G40A U46G | 4.29e-05 ± 1.2e-05 | 0.00152 ± 0.00029 |  |  | 0.000841 ± 0.00023
G37U G41A C68U | < 1e-05 |  |  |  | 
